In patent publication US20060153775A1 (BRACCO INTERNATIONAL B V, published 2006):
Non-standard residues stand in square brackets, D forms with d. No end group written: not given here. AEEA = NCCOCCOCC(=O)O

Legend:
NP-1/Fc (R&D Systems) [1] = target: T1, NP-1/Fc (R&D Systems); assay: fluorescence polarization, OG-labeled ligand (5-20 nM) titrated with NP-1/Fc, 37 C
T1 construct: Bought reagent; also called Neuropilin-1/Fc; Npn-1
Method: (§1) The ability of various compositions comprising TKPPR monomers or multimers to bind to NP-1/Fc and KDR-Fc was evaluated using FP. […] FP values (mP) for each substrate was measured by titrating the ligand (5-20 nM) with receptor protein using a Jolley Research and Consulting FPM-1 fluorescence Polarization analyzer. In each of these experiments the observed polarization values were plotted against receptor concentration. The mP values for 100% binding of tracer labeled ligand to receptor protein was calculated using the software provided by the vendor.

NP-1/Fc (R&D Systems) [2] = target: T1, NP-1/Fc (R&D Systems); assay: competition with 250 pM 125I-VEGF165 for plate-coated NP-1/Fc
Method: (§2) Competitive binding assays with microtiter plates coated with NP-1/Fc (R&D systems) were performed using ¹²⁵I-VEGF₁₆₅ as radioligand (Amersham Pharmacia Biotech Cat. No. IM274, Specific Activity: 1000-2500 Ci/mmol). An assay buffer consisting of Hank's Balanced Salt Solution (HBSS), 25 mM HEPES, and 0.1% BSA, pH 7.4 was used, and for all experiments, Assay volume per well was 75 μL. Plates (Nunc MaxiSorp white opaque Microtiter plate [C-bottom, 437796]) were coated by incubating the wells with 75 μL of a solution containing 3 μg/mL NP-1/Fc in D-PBS/0.1% NaAzide overnight at 4° C. after covering with sealing tape (Dynex, VWR Cat. No. 62402-931). The next day all wells, even control wells lacking NP-1/Fc, were blocked 2 hrs with blocking buffer (1% BSA in D-PBS with 0.05% v/v Tween-20) then washed 4× with PBST (D-PBS/0.05% v/v Tween-20) before starting the assay. All points were derived from triplicate wells, and for each set of replicates in NP-1/Fc-coated wells, a companion set in the absence of the receptor was included. […] Solutions were added to 1.2 mL polypropylene tubes conforming to the microtiter format (Costar Cat. No. 29442-602), and transferred from these tubes to microtiter wells, without further dilution, using a multichannel pipetter. After addition of the appropriate solutions, microtiter plates were incubated at 4° C. for 2 hours. Following the incubation, plates were handwashed 5 times with D-PBS containing 0.05% Tween-20 and 0.1% BSA. The plates were blotted dry and 25 μL deionized water and 100 μL scintillation fluid (Optiphase SuperMix, Wallac) were added to each well. Plates were agitated using a Plate Shaker (Hyperion, Cat. No. 4030-100F) for 3-5 minutes and were then counted using a Microplate Scintillation Counter (Wallac Microbeta Trilux). A set of serially diluted ¹²⁵I-VEGF₁₆₅ standard wells ranging from 200 to 0.04 pM were included with each experiment to aid in quantification of the amount of radiolabel bound. VEGF₁₆₅ (Cat. No. 100-20) was obtained from Peprotech.

[3] = target: T2, neuropilin-1 on HUVEC (neuropilin-1-expressing cells) (human, UniProt O14786 22-923); assay: Qdot binding to HUVEC, fluorescence microscopy
T2 construct: whole, on cells; The assay was done on whole HUVEC; also called NP-1; endothelial cells
Method: Human umbilical vein endothelial cells (HUVEC) were grown to near confluency on collagen 1-coated 8-well chamber slides (BD Biosciences) in EGM-2 medium (Cambrex). […] The slides were incubated 45 min at 37° C. in a tissue culture incubator with 5% CO₂ then incubated an additional 45 min at room temperature in ambient air. After washing five times with D-PBS (30 sec per wash), the cells were fixed with ice-cold acetone for 2 min, rinsed again with D-PBS, and mounted with SlowFade+Dapi (Molecular Probes). The slide wells were examined with a fluorescence microscope equipped with a filter set optimized for 655 nm quantum dots (Omega).

NP-1/Fc (R&D Systems) [4] = target: T1, NP-1/Fc (R&D Systems); assay: fluorescence polarization, competition of OG-labeled D41 binding to NP-1/Fc
Method: as §1

NP-1/Fc (R&D Systems) [5] = target: T3, NP-1/Fc (R&D Systems); assay: as above
T3 chain: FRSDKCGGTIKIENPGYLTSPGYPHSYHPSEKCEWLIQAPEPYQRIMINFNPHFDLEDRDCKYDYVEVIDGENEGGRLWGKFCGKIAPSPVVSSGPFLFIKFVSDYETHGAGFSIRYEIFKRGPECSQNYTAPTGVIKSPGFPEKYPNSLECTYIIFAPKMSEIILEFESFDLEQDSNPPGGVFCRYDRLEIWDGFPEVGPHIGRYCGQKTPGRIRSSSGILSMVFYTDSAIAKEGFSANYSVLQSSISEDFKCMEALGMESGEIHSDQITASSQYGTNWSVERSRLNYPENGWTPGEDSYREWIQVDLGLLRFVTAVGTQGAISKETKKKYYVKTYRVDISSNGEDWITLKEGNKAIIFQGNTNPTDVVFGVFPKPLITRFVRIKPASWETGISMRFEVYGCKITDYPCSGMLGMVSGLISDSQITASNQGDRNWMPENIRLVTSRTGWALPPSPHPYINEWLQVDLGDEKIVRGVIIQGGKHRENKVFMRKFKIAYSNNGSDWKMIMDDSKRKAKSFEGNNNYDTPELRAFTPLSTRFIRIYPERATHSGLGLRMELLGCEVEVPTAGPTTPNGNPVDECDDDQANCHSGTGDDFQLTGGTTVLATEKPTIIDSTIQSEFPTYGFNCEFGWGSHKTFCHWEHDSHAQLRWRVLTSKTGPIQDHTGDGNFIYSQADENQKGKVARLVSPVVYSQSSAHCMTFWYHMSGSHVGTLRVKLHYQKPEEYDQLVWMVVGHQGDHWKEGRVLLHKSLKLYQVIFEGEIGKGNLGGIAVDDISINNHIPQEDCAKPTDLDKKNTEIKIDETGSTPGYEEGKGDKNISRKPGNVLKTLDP
Method: as §1

NP-1/Fc (R&D Systems) [6] = target: T3, NP-1/Fc (R&D Systems); assay: competition with 250 pM 125I-VEGF165 for plate-coated NP-1/Fc
Method: as §2

[7] = target: T4, soluble human KDR/Fc chimera (R&D Systems Inc.) (human, UniProt P35968 20-764); assay: competition with 125I-VEGF165 for plate-coated KDR-Fc
T4 construct: Bought reagent; Fc part of the bought chimera not given, not described
T4 sequence (P35968 20-764, change not shown): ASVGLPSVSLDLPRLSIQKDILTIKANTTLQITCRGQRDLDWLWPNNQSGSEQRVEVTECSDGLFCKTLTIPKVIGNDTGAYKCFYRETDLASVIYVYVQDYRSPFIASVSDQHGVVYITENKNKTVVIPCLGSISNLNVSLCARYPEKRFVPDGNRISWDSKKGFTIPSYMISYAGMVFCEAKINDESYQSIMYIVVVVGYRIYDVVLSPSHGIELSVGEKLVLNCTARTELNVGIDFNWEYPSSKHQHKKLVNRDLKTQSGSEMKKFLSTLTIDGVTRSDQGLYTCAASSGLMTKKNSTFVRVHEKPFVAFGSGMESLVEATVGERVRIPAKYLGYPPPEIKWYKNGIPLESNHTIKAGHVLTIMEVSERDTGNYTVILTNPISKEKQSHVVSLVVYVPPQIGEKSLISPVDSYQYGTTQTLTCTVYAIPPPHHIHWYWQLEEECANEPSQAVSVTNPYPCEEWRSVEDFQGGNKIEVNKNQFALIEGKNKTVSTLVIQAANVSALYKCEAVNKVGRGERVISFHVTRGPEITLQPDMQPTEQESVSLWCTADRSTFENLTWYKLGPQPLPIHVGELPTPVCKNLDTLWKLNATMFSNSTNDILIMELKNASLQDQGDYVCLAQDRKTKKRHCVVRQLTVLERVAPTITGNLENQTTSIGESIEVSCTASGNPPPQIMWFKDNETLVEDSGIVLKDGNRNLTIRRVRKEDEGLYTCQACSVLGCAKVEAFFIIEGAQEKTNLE

T2 sequence (O14786 22-923): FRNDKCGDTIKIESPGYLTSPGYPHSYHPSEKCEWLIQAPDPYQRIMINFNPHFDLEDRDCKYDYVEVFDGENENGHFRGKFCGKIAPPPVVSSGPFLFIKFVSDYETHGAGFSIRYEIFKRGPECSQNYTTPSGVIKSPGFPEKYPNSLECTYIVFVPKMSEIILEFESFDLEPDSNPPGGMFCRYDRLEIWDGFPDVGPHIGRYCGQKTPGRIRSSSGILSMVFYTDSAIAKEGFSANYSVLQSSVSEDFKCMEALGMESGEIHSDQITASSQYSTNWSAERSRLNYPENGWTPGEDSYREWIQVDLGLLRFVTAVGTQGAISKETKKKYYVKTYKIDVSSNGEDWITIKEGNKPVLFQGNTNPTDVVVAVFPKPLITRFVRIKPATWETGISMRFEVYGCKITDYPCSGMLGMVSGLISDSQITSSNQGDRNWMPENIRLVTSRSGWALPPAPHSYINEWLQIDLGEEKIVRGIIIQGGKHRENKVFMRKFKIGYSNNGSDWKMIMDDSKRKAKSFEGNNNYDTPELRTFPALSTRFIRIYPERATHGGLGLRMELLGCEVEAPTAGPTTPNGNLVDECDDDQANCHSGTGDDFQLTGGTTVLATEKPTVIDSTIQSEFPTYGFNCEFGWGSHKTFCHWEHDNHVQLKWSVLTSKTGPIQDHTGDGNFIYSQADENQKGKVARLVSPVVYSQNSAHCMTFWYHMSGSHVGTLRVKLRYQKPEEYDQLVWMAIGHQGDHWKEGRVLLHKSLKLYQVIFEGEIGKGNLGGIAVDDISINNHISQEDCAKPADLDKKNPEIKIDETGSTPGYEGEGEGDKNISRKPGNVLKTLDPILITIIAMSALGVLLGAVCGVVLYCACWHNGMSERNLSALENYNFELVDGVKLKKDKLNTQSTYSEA

B1: TKPPR tetramer D41, OG-(TKPPR)4 (peptide)
peptide: [AEEA]TKPPR
modifications: also: tetramer of four TKPPR on a branched non-peptide scaffold, one Oregon Green label on scaffold
notes: also called tetrameric TKPPR; fluorescently-labeled TKPPR tetramer
- Kd (NP-1/Fc (R&D Systems) [1]): 0.025 to 0.05 µM
- IC50 (NP-1/Fc (R&D Systems) [2]): 0.13 µM

B2: Qdots conjugated with monomeric TKPPR (D51) (peptide)
peptide: TKPPR
modifications: also: further groups not given here
notes: The full structure of D51 ([M+H] 1004.5) stands only in a drawing; also called D51-conjugated Qdots; linear monomeric TKPPR-conjugated Qdots
- binding result [3]: binds

Binder: [AEEA]TKPPR (also: dimer on branched bis-acid scaffold carrying one Oregon Green) [TKPPR dimer D40, OG-(TKPPR)2]
- IC50 (NP-1/Fc (R&D Systems) [2]): 3 µM

B3: TKPPR tetramer D43 on a lysine core with trioxa Oregon Green at the C-terminal (peptide)
peptide: TKPPR
modifications: also: tetramer: C-terminal Arg of each TKPPR linked to amino groups of branched Lys-Lys(Lys)-Gly core, Gly carries TTDA-Oregon Green
notes: The lysine core (three Lys and one Gly) is not written as a chain of its own; also called Reverse Tetramer; compound 16
- IC50 (NP-1/Fc (R&D Systems) [2]): 8 µM

Binder: TKPPR (also called D45; TKPPR-OH) [TKPPR (L-threonyl-L-lysyl-L-prolyl-L-prolyl-L-arginine)]
- IC50 (NP-1/Fc (R&D Systems) [4]): 80 µM
- IC50 (NP-1/Fc (R&D Systems) [2]): 43 µM

B4: VEGF165 (ligand, UniProt P15692-4 27-191, looked up)
chain: APMAEGGGQNHHEVVKFMDVYQRSYCHPIETLVDIFQEYPDEIEYIFKPSCVPLMRCGGCCNDEGLECVPTEESNITMQIMRIKPHQGQHIGEMSFLQHNKCECRPKKDRARQENPCGPCSERRKHLFVQDPQTCKCSCKNTDSRCKARQLELNERTCRCDKPRR
modifications: 125I label on the radioligand form (Amersham IM274)
notes: mature; The labelled and the unlabelled protein are kept as one molecule; also called unlabeled VEGF
- IC50 (NP-1/Fc (R&D Systems) [5]): 0.2 µM
- IC50 (NP-1/Fc (R&D Systems) [6]): 0.0005 µM

B5: Tuftsin (TKPR) (peptide)
peptide: TKPR
notes: Naturally occurring tetrapeptide, used as free peptide; also called free tuftsin
- IC50 (NP-1/Fc (R&D Systems) [6]): 280 µM

Binder: {Oregon Green (5-isomer)}-GTKPPR-OH (also called D44; OG-TKPPR) [Oregon Green (5-isomer)-GTKPPR-OH]
- IC50 (NP-1/Fc (R&D Systems) [6]): 30 µM
- binding result [7]: no binding

B6: Qdots conjugated with tetrameric TKPPR (D50) (peptide)
peptide: [AEEA]TKPPR
modifications: also: four TKPPR on a branched scaffold, thiol coupled through LC-SMCC to quantum dots
notes: Many D50 molecules on each 655 nm quantum dot; also called D50-conjugated Qdots; branched tetrameric TKPPR-conjugated Qdots
- binding result [3]: binds
